Here are results for 2 molecules from US20220267451A1.

For orientation: Kd means the equilibrium constant for the complex coming apart. What is called koff is a measure of how fast the partners let go of each other. In general, kon refers to the second-order rate constant of association.

The test addresses recombinant IGF-1R extracellular domain (ECD) (UniProt P08069). The test can be described thus: SPR; antibody captured by immobilized anti-Fc, IGF-1R-ECD as analyte, global fit to single site model.

Take teprotumumab (antibody): the Kd came to 2.2 nM, the dissociation rate constant (koff) came to 0.00039 s⁻¹ and the kon turned out to be 180000 M⁻¹ s⁻¹.

B1: VRDN-1100 (antibody, V domains shown)
VH: QVQLVQSGAEVVKPGASVKLSCKASGYTFTSYWMHWVKQRPGQGLEWIGEINPSNGRTNYNQKFQGKATLTVDKSSSTAYMQLSSLTSEDSAVYYFARGRPDYYGSSKWYFDVWGQGTTVTVSS
VL: DVVMTQTPLSLPVSLGDPASISCRSSQSIVHSNVNTYLEWYLQKPGQSPRLLIYKVSNRFSGVPDRFSGSGAGTDFTLRISRVEAEDLGIYYCFQGSHVPPTFGGGTKLEIKR
For the molecule B1, the Kd was found to be 0.57 nM, the koff is 5.1e-05 s⁻¹ and the kon stood at 88000 M⁻¹ s⁻¹.
